Test results: patent US20240254222A1 (Bayer, published 2024)

Target: T1, Human Semaphorin3A-Sema Domain, TPP-19068 (human, UniProt Q14563 21-569)
T1 construct: produced inhouse in HEK293-6E; also called human monovalent Sema3A domain
T1 sequence: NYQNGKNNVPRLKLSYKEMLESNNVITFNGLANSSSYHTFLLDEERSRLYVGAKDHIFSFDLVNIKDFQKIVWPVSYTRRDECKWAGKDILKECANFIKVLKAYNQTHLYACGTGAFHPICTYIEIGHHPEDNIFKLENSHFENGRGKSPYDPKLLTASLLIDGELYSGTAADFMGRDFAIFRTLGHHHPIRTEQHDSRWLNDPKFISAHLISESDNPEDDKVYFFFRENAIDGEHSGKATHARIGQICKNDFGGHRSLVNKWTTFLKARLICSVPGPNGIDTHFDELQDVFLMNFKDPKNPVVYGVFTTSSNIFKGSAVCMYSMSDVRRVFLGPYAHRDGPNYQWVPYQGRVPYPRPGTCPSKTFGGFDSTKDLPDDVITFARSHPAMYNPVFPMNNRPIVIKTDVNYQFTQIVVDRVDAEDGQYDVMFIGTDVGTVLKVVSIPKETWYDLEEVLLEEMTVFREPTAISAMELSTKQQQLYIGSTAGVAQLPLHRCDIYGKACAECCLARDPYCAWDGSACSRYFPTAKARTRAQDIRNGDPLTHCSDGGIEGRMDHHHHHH
Assay: SPR, 100 nM TPP-19068, binding experiment
Method: To assess the binding kinetics and affinity of anti-Sema3A antibodies as well as their species cross-reactivity profile, binding assays were conducted using surface plasmon resonance (SPR). Binding assays were performed on a Biacore T200 instrument or on a Biacore 8K+ instrument (Cytiva) at 25° C. using assay buffer HBS P+, 300 mM NaCl, 0.75 mM CaCl₂, 2.5 mM MgCl₂, 1 mg/ml BSA, 0.05% NaN₃. Antibodies were captured either via anti-human Fc IgGs (“Human antibody capture kit”, Order No. BR100839, Cytiva) or in case of Fc-tagged analytes by anti-human Fab IgGs (“Human Fab capture kit”, Order No. 28958325, Cytiva) covalently amine coupled to a Series S CM5 sensor chip (Cytiva). The amine coupling was carried out according to the manufacturer's instructions using 1-ethyl-3-(3-dimethylaminopropyl) carbodiimide hydrochloride (EDC), N-hydroxysuccinimide (NHS) and ethanolamine HCl, pH 8.5 (“Amine Coupling Kit” BR-1000-50, Cytiva.). For phage display hits Fc-tagged human and mouse Sema3A was used as analytes in a concentration range from 1.56-200 nM. Human, mouse, cynomolgus, rat, dog and pig monovalent Sema3A domain were used as analytes in a concentration series from […] in multi cycle kinetics mode or in 100 nM for binding analysis only. The sensor surface was regenerated with glycine pH 2.0 after each antigen injection. Obtained sensorgrams were double referenced (subtraction of reference flow cell signal and buffer injection) and were fitted to a 1:1 Langmuir binding model to derive kinetic data using the Biacore T200 Evaluation software.

B1: TPP-31357 (Fab, V domains shown)
V domain 1: EVQLLESGGGLVQPGGSLRLSCAASGFTFRSYAVHWVRQAPGKGLEWVSSTEGSGVGTSYTDSVKGRFTISRDNSKNTLYLQMNSLRAEDTAVYYCARMLGGGNPLDYLDYWGQGTLVTVSS
V domain 2: QSVLTQPPSASGTPGQRVTISCSGSSSNLGEGYDVHWYQQLPGKAPKLLIYYSDFRPSGVSDRFSGSKSGTSASLAISGLQSEDEADYYCAAWDDSLSSQVFGGGTQVTVLG
notes: Fab heavy chain entry carries myc and His tags; also called Fab of 3H4 Univ Ramot
Kd: 350 pM
